According to patent US20110009316A1:

Assays:
[1] = molecular target: VEGF165 wild type synthesized in COS-1 cells (UniProt P15692); experiment: cell-based or functional assay
[2] = molecular target: commercially available recombinant VEGF165 protein (R&D Systems) (UniProt P15692); experiment: cell-based or functional assay
[3] = molecular target: VEGF165 wild type synthesized in COS-1 cells (UniProt P15692)
MutAla = MutAla (UniProt P15692)
[4] = molecular target: commercially available recombinant VEGF165 protein (R&D Systems) (UniProt P15692)
MutGln = MutGln (UniProt P15692)

MutPro, sequence (chain, as listed by the source): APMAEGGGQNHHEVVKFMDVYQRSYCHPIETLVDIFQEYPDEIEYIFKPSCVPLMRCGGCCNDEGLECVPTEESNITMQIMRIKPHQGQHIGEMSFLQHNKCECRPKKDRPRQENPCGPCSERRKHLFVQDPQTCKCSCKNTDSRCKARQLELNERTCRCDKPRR
MutLys-Pro, sequence (chain, as listed by the source): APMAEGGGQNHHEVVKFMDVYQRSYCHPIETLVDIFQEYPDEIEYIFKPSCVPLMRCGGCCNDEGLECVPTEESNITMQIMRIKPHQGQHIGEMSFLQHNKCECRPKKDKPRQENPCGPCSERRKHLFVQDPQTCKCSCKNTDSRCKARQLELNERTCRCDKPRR

loss of biological activity (BrdU incorporation into HUVE cells) 20 minutes after incubation with plasmin [1] | remaining biological activity (BrdU incorporation into HUVE cells) after 240 minutes with plasmin (% of the initial activity) [1] | loss of biological activity (BrdU incorporation into HUVE cells) 20 minutes after incubation with plasmin [2] | remaining biological activity (BrdU incorporation into HUVE cells) after 240 minutes with plasmin (% of the initial activity) [2] | Substance | degradation on incubation with plasmin [0.01 U/ml], Western blotting and immunodetection (MutLys-Pro) | degradation on incubation with plasmin [0.01 U/ml], Western blotting and immunodetection [3] | degradation on incubation with plasmin [0.01 U/ml], Western blotting and immunodetection (MutPro) | degradation on incubation with plasmin [0.01 U/ml], Western blotting and immunodetection (MutAla) | degradation on incubation with plasmin [0.01 U/ml], Western blotting and immunodetection [4] | degradation on incubation with plasmin [0.01 U/ml], Western blotting and immunodetection (MutGln)
> 20% | 50 | > 20% | 50 | plasmin (enzyme) | – | – | – | – | – | –
– | – | – | – | plasmin | also show a comparable stability of the signal bands at 45 and 42 kDA after incubation with plasmid for 240 minutes | shows degradation of the growth factor after only 15 minutes | also show a comparable stability of the signal bands at 45 and 42 kDA after incubation with plasmid for 240 minutes | the mutated protein shows no change in the migration behaviour up to 240 minutes after incubation | the degradation pattern is similar to that of the commercially obtainable VEGF165 | also show a comparable stability of the signal bands at 45 and 42 kDA after incubation with plasmid for 240 minutes
